Results taken from publication PMC8134492.

Target: MS2-Biotin, biotinylated single-chain MS2 coat protein dimer with an AviTag in a surface loop of the second monomer (bacteriophage MS2)
Assay: SEC

streptavidin (from UniProt P22629 25-183) (natural protein)
stoichiometry N (streptavidin molecules per VLP): 72
